Test results taken from patent publication US20170129959A1 (OSE IMMUNOTHERAPEUTICS, published 2017).
Values joined by “and” are separate entries in the source; they are usually repeats but may differ in a detail not shown here. Equal entries are not always repeated.

T1: Recombinant hCD127 (Sino Biologicals, reference 10975-H08H) (human, UniProt P16871 21-239)
T1 construct: Bought protein; also called recombinant hCD127 antigen; rCD127
T1 chain: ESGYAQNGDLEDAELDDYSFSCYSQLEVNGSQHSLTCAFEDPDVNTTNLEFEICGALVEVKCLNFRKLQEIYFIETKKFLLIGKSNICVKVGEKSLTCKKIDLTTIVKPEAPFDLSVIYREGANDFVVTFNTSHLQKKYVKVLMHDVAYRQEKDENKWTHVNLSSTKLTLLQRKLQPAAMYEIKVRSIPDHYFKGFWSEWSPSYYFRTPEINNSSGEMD

T2: Human CD127 (IL-7 receptor alpha chain) expressed on cells (human, UniProt P16871 21-459)
T2 chain: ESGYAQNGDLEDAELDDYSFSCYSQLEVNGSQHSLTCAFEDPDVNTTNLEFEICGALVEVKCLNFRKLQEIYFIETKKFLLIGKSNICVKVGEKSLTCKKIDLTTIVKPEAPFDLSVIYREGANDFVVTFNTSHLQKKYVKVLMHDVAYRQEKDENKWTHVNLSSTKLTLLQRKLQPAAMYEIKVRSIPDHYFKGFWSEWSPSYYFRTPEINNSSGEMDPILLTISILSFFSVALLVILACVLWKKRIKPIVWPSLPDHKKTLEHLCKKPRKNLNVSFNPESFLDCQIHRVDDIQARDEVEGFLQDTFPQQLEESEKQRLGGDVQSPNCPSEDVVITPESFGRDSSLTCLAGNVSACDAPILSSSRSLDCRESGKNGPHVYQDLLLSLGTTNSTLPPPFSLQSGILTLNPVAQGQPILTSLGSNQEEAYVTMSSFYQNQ

T3: Recombinant CD127 Fc Chimera (10975-H03H, Sino Biological) (human, UniProt P16871 21-239)
T3 construct: Bought protein; also called hCD127-Ig; human CD127Fc; not shown: constant fragment of an immunoglobulin
T3 chain: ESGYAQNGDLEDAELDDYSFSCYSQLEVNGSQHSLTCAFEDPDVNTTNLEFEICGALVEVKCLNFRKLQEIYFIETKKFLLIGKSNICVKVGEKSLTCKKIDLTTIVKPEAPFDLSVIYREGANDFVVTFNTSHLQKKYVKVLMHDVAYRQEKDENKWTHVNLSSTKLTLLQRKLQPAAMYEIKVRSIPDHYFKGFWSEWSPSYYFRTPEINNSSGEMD


Columns and labels:
[1] = target: T1, Recombinant hCD127 (Sino Biologicals, …); test: ELISA, recombinant hCD127 coated on plastic at 1 µg/ml, antibody titrated; printed as ED 50
Method: FIG. 4. The Anti CD127 activity of the new antibody N13B2 was measured by ELISA assay using a recombinant hCD127 antigen. OD 450 nm: optical density at 450 nm. A. The CD127 binding activity of the N13B2 (full circle) was compared to the previous antibody generation (MD707-1 (empty diamond), 3 (empty triangle) and 6 (full square)). N13B2 appears as the most efficient binder in the assay. B. The CD127 activity between different N13B2 formats (rat, IgG1 (circle) or IgG4 (square)) was compared. No significant difference in binding activity was observed.
(§1) The binding activity of the anti hCD127 antibody was assessed by ELISA (Enzyme-linked immunosorbent assay). For the ELISA assay, recombinant hCD127 (Sino Biologicals, Beijing, China; reference 10975-H08H) was immobilized on plastic at 1 μg/ml and purified antibody were added to measure binding.

[2] = target: T2, Human CD127 (IL-7 receptor alpha chain) …; test: cell-based or functional assay
[3] = target: T2, Human CD127 (IL-7 receptor alpha chain) …; test: cell-based or functional assay
[4] = target: T3, Recombinant CD127 Fc Chimera …; test: SPR (Biacore 3000), CD127Fc immobilised on CM5 chip, antibody injected, Bivalent analyte model; separate experiment
Method: (§2) A CM5 chip (GE healthcare) was activated by injection of NHS/EDC mix for 7 min. […] The free reactive residues were inactivated by the injection of 1M ethanolamine pH8.5. […] The injection rate was set at 40 μL/min, the association was measured for 3 min and dissociation for 10 min. Between each cycle of the analysis, the chip was regenerated by injection of a solution of 5M MgCl2 for 60 s.

[5] = target: T3, Recombinant CD127 Fc Chimera …; test: ELISA, human CD127Fc coated, revealed with anti-human kappa antibody; printed as ED 50
[6] = target: T2, Human CD127 (IL-7 receptor alpha chain) …; test: cell-based or functional assay
[7] = target: T3, Recombinant CD127 Fc Chimera …; test: ELISA, coated human CD127Fc, revealed with an anti-human kappa antibody
[8] = target: T1, Recombinant hCD127 (Sino Biologicals, …); test: ELISA on coated recombinant hCD127, anti-human kappa detection; antibody stored 7 days at 37 °C; printed as ED 50
Method: (§3) FIG. 15. Stability assay of humanized versus Rat anti-CD127 antibodies. Antibody concentrations was measured by ELISA after 7 days at 37° C. (Rat N13B2 wt (+) or humanized N13B2 h3 (square)) and at −80° C. (Rat N13B2 wt (X) or humanized N13B2 h3 (triangle)) and after four frost/defrost events (diamonds).
(§4) Humanized and chimeric purified N13B2-G1 were incubated at 37° C. or at −80° C. for 7 days. Two assays were used to measure stability of antibody: binding anti-CD127 by ELISA assay, and aggregate formation by gel filtration. For activity ELISA assay, recombinant hCD127 (Sino Biologicals, Beijing, China; reference 10975-H08H) was immobilized on plastic at lpg/ml and dilutions of supernatant were added to measure binding. […] For analysis of aggregate formation, sample was analysed on gel filtration chromatography column (Superdex 200, 10/300GL, GeHealthcare) to separate and evaluate aggregate and monomer from samples.

[9] = target: T1, Recombinant hCD127 (Sino Biologicals, …); test: ELISA on immobilised recombinant hCD127; antibody stored 7 days at -80 °C
Method: as §3, §4

[10] = target: T1, Recombinant hCD127 (Sino Biologicals, …); test: ELISA on immobilised recombinant hCD127; antibody stored 7 days at 37 °C
Method: as §3, §4

[11] = target: T1, Recombinant hCD127 (Sino Biologicals, …); test: ELISA on coated recombinant hCD127, anti-human kappa detection; antibody stored 7 days at -80 °C; printed as ED 50
Method: as §3, §4

[12] = target: T1, Recombinant hCD127 (Sino Biologicals, …); test: ELISA on immobilised recombinant hCD127
Method: as §1

[13] = target: T3, Recombinant CD127 Fc Chimera …; test: SPR (Biacore 3000), CD127Fc immobilised on CM5 chip, antibody injected, Bivalent analyte model
Method: FIG. 3. (A) Binding studies of rat N13B2 anti-CD127 antibody. N13B2 antibody or MD707-1 were injected on a CD127 immobilized antigen at different concentration. Resp. diff: Response difference. Time: time in sec (total duration: 20 min). Blk: blank (no antibody). The association and dissociation curves were analyzed with model “Bivalent analyte” on BIAeval 4 software.
as §2

Binder	EC50 [1]	IC50 on P-STAT5 induced by 100 pg/ml of rhIL7 [2]	inhibition of STAT5 phosphorylation in human PBMC [3]	Ka [4]	Kd [4]	koff [4]	kon [4]	EC50 [5]	IC 50 of inhibition of IL7 induced P-STAT5 on T lymphocytes (0.1 ng/ml rhIL-7) [6]	further results
MD707-3 (rat anti-human CD127 antibody, previous generation) (antibody, V domains shown) VH: AVHLVESGGGLVQPKESLKISCAASGFTFSNAAMYWVRQAPGKGLEWVARIRTKANNYATYYAESVKGRFTISRDDSKSMVYLQMDNVKTDDTAMYYCIVVVLTTTRDYFDYWGQGVMVTVSS VL: DIVLTQAPLSVSVTPGESASISCRSSQSLLTVKGITSLYWFLQKPGKSPQLLIYRMSNLASGVPDRFRGSGSETDFTLKISKVETEDVGVYYCAQFLEYPHTFGAGTKLELKR	293 ng/mL	1.09 ng/mL	–	–	–	–	–	–	–	–
N13B2-G4 (chimeric N13B2, human IgG4 Fc S228P, human CL kappa) (antibody, also called cN13B2-G4; N13B2-G4m) heavy: not shown light: DIQMTQSPASLSASLGETVTIECRTSEDIYNGLAWYQQKPGKSPQLLVYSANSLHIGVPSRFSGSGSGTQYSLKINSLQFEDVASYFCQQYYDYPLAFGSGTKLEIKRTVAAPSVFIFPPSDEQLKSGTASVVCLLNNFYPREAKVQWKVDNALQSGNSQESVTEQDSKDSTYSLSSTLTLSKADYEKHKVYACEVTHQGLSSPVTKSFNRGEC	12.6 ng/mL	0.037 ng/mL	> 50 % inhibition at 50 ng/ml and > 80 % inhibition at 100 ng/ml (0.1 ng/ml IL-7) and > 90 % inhibition at 100 ng/ml (5 ng/ml IL-7)	5.89e+09 M⁻¹	170 pM	3.41e-06 s⁻¹	20100 M⁻¹ s⁻¹	–	–	–
N13B2-G1 (chimeric N13B2, human IgG1 Fc E333A, human CL kappa) (antibody, also called cN13B2-G1; N13B2-G1m) heavy: not shown light: DIQMTQSPASLSASLGETVTIECRTSEDIYNGLAWYQQKPGKSPQLLVYSANSLHIGVPSRFSGSGSGTQYSLKINSLQFEDVASYFCQQYYDYPLAFGSGTKLEIKRTVAAPSVFIFPPSDEQLKSGTASVVCLLNNFYPREAKVQWKVDNALQSGNSQESVTEQDSKDSTYSLSSTLTLSKADYEKHKVYACEVTHQGLSSPVTKSFNRGEC	12 ng/mL	0.028 ng/mL	> 50 % inhibition at 50 ng/ml and > 80 % inhibition at 100 ng/ml (0.1 ng/ml IL-7) and > 90 % inhibition at 100 ng/ml (5 ng/ml IL-7)	2.65e+09 M⁻¹	377 pM	5.62e-05 s⁻¹	149000 M⁻¹ s⁻¹	–	–	–
N13B2-h2 (humanized N13B2) (antibody, V domains shown, Variable regions only) VH: QVQLVESGGGLVKPGGSLRLSCAVSGFTLSDYYMAWIRQAPGKGLEWVSTISASGLRTYYPDSVKGRFTISRDNAKNSLYLQMNSLRAEDTAVYYCARPMSAHYGFNYFDYWGQGTLVTVSS VL: EIVMTQSPATLSVSPGERATLSCRTSEDIYNGLAWYQQKPGQAPRLLIYSANSLHIGIPARFSGSGSGTEFTLTISSLQSEDFAVYYCQQYYDYPLAFGGGTKVEIK	–	–	–	–	–	–	–	0.6 ng/mL	18.7 ng/mL	–
N13B2-h1 (humanized N13B2) (antibody, V domains shown) VH: QVQLVESGGGLVKPGGSLRLSCAVSGFTLSDYYMAWVRQAPGKGLEWVATISASGLRTYYPDSVKGRFTISRDDAKNSLYLQMNSLRAEDTAVYYCARPMSAHYGFNYFDYWGQGTLVTVSS VL: EIVMTQSPATLSVSPGERATLSCRTSEDIYNGLAWYQQKPGQAPRLLVYSANSLHIGIPARFSGSGSGTEYTLTISSLQSEDFAVYFCQQYYDYPLAFGGGTKVEIK	–	–	–	–	–	–	–	2.4 ng/mL	63.8 ng/mL	EC50 (read off the curve) [7]: ~2 ng/mL
N13B2 wt (antibody, V domains shown, also called Rat N13B2 wt) VH: AVQLVESGGGLVQPGGSLKLSCAVSGFTLSDYYMAWVRQAPKKGLEWVATISASGLRTYYPDSVKGRFTISRDDAKRSLFLQMTSLKSEDTATYYCARPMSAHYGFNYFDYWGQGVMVTVSS VL: DIQMTQSPASLSASLGETVTIECRTSEDIYNGLAWYQQKPGKSPQLLVYSANSLHIGVPSRFSGSGSGTQYSLKINSLQFEDVASYFCQQYYDYPLAFGSGTKLEIKR	–	–	–	–	–	–	–	3 ng/mL	50.2 ng/mL	EC50 [8]: 3.5 ng/mL; EC50 (read off the curve) [9]: ~3 ng/mL; EC50 (read off the curve) [7]: ~3 ng/mL; EC50 (read off the curve) [10]: ~4 ng/mL; EC50 [11]: 3.6 ng/mL
N13B2 (rat anti-human CD127 monoclonal antibody) (antibody, V domains shown, Rat hybridoma antibody; It was detected with anti-rat kappa; also called rat N13B2; N13B2 mAb) VH: AVQLVESGGGLVQPGGSLKLSCAVSGFTLSDYYMAWVRQAPKKGLEWVATISASGLRTYYPDSVKGRFTISRDDAKRSLFLQMTSLKSEDTATYYCARPMSAHYGFNYFDYWGQGVMVTVSS VL: DIQMTQSPASLSASLGETVTIECRTSEDIYNGLAWYQQKPGKSPQLLVYSANSLHIGVPSRFSGSGSGTQYSLKINSLQFEDVASYFCQQYYDYPLAFGSGTKLEIKR	65.6 ng/mL	0.043 ng/mL	> 50 % inhibition at 50 ng/ml and > 80 % inhibition at 100 ng/ml (0.1 ng/ml IL-7) and > 90 % inhibition at 100 ng/ml (5 ng/ml IL-7)	2.03e+10 M⁻¹	49.3 pM	4.75e-06 s⁻¹	96300 M⁻¹ s⁻¹	–	–	EC50 (read off the curve) [12]: ~60 ng/mL; Ka [13]: 1.26e+10 M⁻¹; Kd [13]: 79.6 pM; koff [13]: 1.6e-05 s⁻¹; kon [13]: 201000 M⁻¹ s⁻¹
